The supplement of paper PMC10567573

B1: OAS1 (parent)
chain: YIGTHEYPHFSHRPSTLQAASTPQ
B2: KRT33B (parent)
chain: YQSYFKTIEELQQKILCSKSENAR

Variants of: B1
Assay: protein stability index of a GFP-peptide fusion (GPS, HEK-293T) (PSI 1-6); higher = more stable
Conditions: c terminus: a fixed tail appended
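Further: lentivirally expressed fusions sorted by FACS into six bins by GFP to DsRed ratio, PSI derived from sequencing read proportions per bin multiplied by bin number.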

Protein stability index of substitutions, site by site:
P8: R 1.63 | C 2.12 | N 2.05 | K 2.08 | F 2.44 | Q 1.95 | M 1.91 | V 2 | E 2.79 | S 1.95 | Y 1.92 | L 1.91 | H 2.45 | W 1.74 | G 1.39 | D 2.35 | T 1.54 | I 2.02 | A 1.74
T4: F 2.11 | M 2.15 | K 2.15 | P 2.34 | D 2.56 | E 2.55 | A 1.86 | C 2.12 | G 2.27 | S 1.89 | H 1.95 | Q 1.89 | V 1.76 | N 2.2 | L 1.81 | R 1.7 | W 2.89 | I 1.84 | Y 1.84
I2: N 3.29 | V 2.61 | S 2.49 | M 2.92 | Q 2.59 | E 4.18 | Y 3.27 | W 2.66 | D 3.48 | L 2.73 | T 2.17 | C 1.87 | K 3.47 | F 2.67 | G 3.15 | P 2.47 | H 1.44 | A 2.29 | R 3.68
H5: S 1.94 | E 2.53 | Q 2.38 | M 2.14 | N 2.03 | Y 1.83 | F 2.28 | I 1.93 | L 2.12 | T 2.3 | G 2.09 | C 1.75 | A 1.72 | K 2.47 | W 2.29 | V 2.23 | P 2.45 | R 2.35 | D 2.52
Y7: L 2.06 | N 2.15 | F 1.68 | Q 2.65 | I 2.44 | D 3.16 | S 2.55 | A 2.23 | R 2.12 | M 2.37 | T 2.3 | V 2.12 | C 2.49 | E 3.16 | K 3.34 | G 1.98 | H 2.18
F10: N 2.43 | V 2.12 | C 2.24 | D 3.14 | Y 1.79 | W 1.89 | S 2.9 | L 2.53 | E 3.25 | Q 2.41 | I 2.27 | R 2.19 | M 2.73 | K 2.73 | T 2.48 | H 2.56 | G 2.88 | P 2.06 | A 2.57
H12: C 2.64 | R 2.55 | V 1.93 | N 2.12 | K 2.07 | G 1.71 | D 2.49 | L 2.39 | W 1.46 | Y 1.92 | P 2.15 | M 1.68 | E 2.25 | S 1.83 | F 2.21 | Q 2.23 | I 1.72 | A 1.97 | T 2.03
S11: M 1.93 | E 2.56 | D 2.64 | G 2.14 | A 1.96 | C 2.65 | I 2.71 | R 2.09 | Q 2.71 | V 2.85 | L 2.54 | Y 3.04 | N 2.31 | W 2.76 | T 1.76 | P 2.44 | K 1.92 | H 1.98 | F 3.55
E6: P 1.5 | T 2.14 | L 2.99 | H 2.32 | A 2 | M 1.46 | W 3.29 | K 2.06 | R 1.61 | N 2.18 | V 1.88 | Y 1.89 | F 3.8 | Q 1.68 | S 1.79 | C 2.26 | G 1.81 | D 1.92 | I 1.75
Y1: T 4.07 | D 4.09 | E 4.08 | Q 4.21 | W 2.73 | H 3.64 | I 3.58 | S 4 | F 1.49 | L 3.54 | N 4.04 | R 3.84 | K 3.52 | C 3.33 | A 4.01 | G 4.34 | P 4.32 | V 3.64 | M 3.66
R13: M 2.19 | K 2.12 | V 2.67 | L 1.66 | H 2.29 | E 2.19 | S 2.18 | D 2.52 | W 3.13 | F 1.33 | N 1.8 | C 1.26 | A 2.58 | T 1.79 | G 1.92 | Q 1.99 | Y 2.09 | I 1.92
P14: D 2.1 | A 1.81 | E 2.17 | G 2.21 | V 2.48 | I 1.72 | S 1.64 | R 1.9 | M 1.74 | H 2.1 | C 1.78 | N 2.1 | L 1.7 | T 1.98 | Q 2.22 | F 1.49 | K 2.13
H9: T 2.09 | W 3.41 | A 1.87 | D 2.75 | I 2.18 | Q 2.12 | K 1.94 | G 1.95 | S 2.09 | F 2.2 | C 1.48 | V 1.78 | N 2.4 | M 2.33 | R 2.08 | E 3.17 | Y 2.83 | P 1.44 | L 1.67
G3: S 2.03 | R 2.07 | F 2.35 | D 1.75 | M 1.86 | A 2.11 | C 1.97 | I 2.6 | P 2.28 | H 1.89 | N 2.3 | K 2.48 | L 2.19 | E 1.8 | T 2.29 | V 1.95 | Y 1.6 | Q 2.32 | W 1.83

Variants of: B2
Assay: as above
Conditions: c terminus: a fixed tail appended

Protein stability index of substitutions, site by site:
A23: F 1.47 | M 2.11 | L 1.73 | C 1.86 | P 1.68 | N 2.24 | H 1.68 | G 2.03 | W 1.57 | D 1.62 | Q 2.36 | R 2.13 | V 2.35 | S 2.21 | I 1.9 | T 2.27 | Y 1.64 | E 2.77 | K 1.76
R24: G 2.55 | A 1.94 | S 2.07 | N 2.02 | E 1.88 | H 1.71 | F 1.47 | K 1.84 | Q 2.34 | I 1.79 | L 2.15 | P 2.13 | Y 1.3 | D 1.78 | T 1.76 | M 1.92 | V 1.98 | W 1.15 | C 2.4
N22: Q 2.19 | S 2.5 | L 1.86 | T 1.39 | A 2.31 | M 1.93 | C 2.3 | P 1.46 | F 1.67 | H 2.18 | V 1.89 | W 1.9 | D 1.82 | K 1.8 | Y 1.86 | E 1.89 | G 1.99 | I 1.71 | R 1.49
E21: P 1.8 | W 1.28 | L 1.7 | S 1.54 | T 1.77 | K 1.79 | I 1.6 | G 1.72 | N 1.79 | V 1.65 | Y 1.75 | Q 2.1 | H 1.79 | R 1.77 | M 2.13 | F 2.06
